In test [1] the target is ALFA-Pb displayed on E. coli cells (AIDA autodisplay system), photocaged, not irradiated. As to the kind of experiment: flow cytometry on cells; E. coli cells displaying the nanobody (AIDA autodisplay system), not irradiated, mixed with a dilution series of fluorescent sfGFP-ALFA-tag (3).
For test [2], the target named is sfGFP-ALFA-tag (3). As to the kind of experiment: MST; 10 nM sfGFP-ALFA-tag (3) with a dilution series of photobody 1, before light activation.
Test [3] has as its target T1, sfGFP-ALFA-tag (3) (synthetic construct …).
T1 construct: ALFA-tag, laboratory-designed amphiphilic peptide of 13 amino acids; sfGFP is the fluorescent marker read in MST and flow cytometry; also called protein 3; fusion construct sfGFP-ALFA-tag
T1 chain: SRLEEELRRRLTE
As to the kind of experiment: flow cytometry on cells; E. coli cells displaying the ALFA-Pb irradiated in 100 uL PBS (OD600=1; 365 nm, 530 mW; 5 cm distance), then different concentrations of sfGFP-ALFA-tag (3) added. The settings on record: one partner purified.

The target in test [4] is T1, sfGFP-ALFA-tag (3). As to the kind of experiment: flow cytometry on cells; E. coli cells displaying the nanobody (AIDA autodisplay system), not irradiated, mixed with a dilution series of fluorescent sfGFP-ALFA-tag (3). Conditions: one partner purified.

sfGFP-ALFA-tag (3): the Kd (commonly the free concentration of one partner at which half of the binding sites on the other are occupied at equilibrium, for simple one-to-one binding) in test [1] came to 3200 nM.

On to “ALFA-tag photobody (ALFA-Pb) 1, Tyr42ONBY, photocaged (VHH)”, for which the Kd with sfGFP-ALFA-tag (3) [2] turned out to be 7900 nM.

B1: decaged ALFA-Pb displayed on E. coli cells (after irradiation at 365 nm) (VHH)
VHH: EVQLQESGGGLVQPGGSLRLSCTASGVTISALNAMAMGWYRQAPGERRVMVAAVSERGNAMYRESVQGRFTVTRDFTNKMVSLQMDNLKPEDTAVYYCHVLEDRVDSFHDYWGQGTQVTVSS
notes: Made from m2 by UV light
As for B1, in the test with sfGFP-ALFA-tag (3) [3], binding was put at a Kd of 0.183 ± 0.006 nM.

B2: ALFA-Nb (wild type) displayed on E. coli cells, unirradiated control (VHH)
VHH: EVQLQESGGGLVQPGGSLRLSCTASGVTISALNAMAMGWYRQAPGERRVMVAAVSERGNAMYRESVQGRFTVTRDFTNKMVSLQMDNLKPEDTAVYYCHVLEDRVDSFHDYWGQGTQVTVSS
notes: ALFA-tag nanobody (ALFA-Nb), wild type; also called unirradiated ALFA-Nb control; ALFA-tag nanobody
In the test with sfGFP-ALFA-tag (3) [4], B2 returned a Kd of 0.346 ± 0.005 nM.
